Substrate in this data set: COc1cc2ccc(=O)oc2cc1O[C@@H]1O[C@H](CO)[C@@H](O)[C@H](O)[C@H]1O
The data set can be described thus: glucose release, D-Glucose HK assay, substrate inhibition fit. It is filed as biochemical, Streptomyces scabiei. The note with it: HEPES 50 mM pH 7.5, 40 °C, 4 min, substrate inhibition model.

B1: His6-BglC (Streptomyces scabiei 87.22) (protein)
chain: MPEPVNPATPVTFPPAFLWGAATSAYQIEGAVREDGRTPSIWDTFSHTPGKTAGGENGDIAVDHYHRYRDDVAMMADLGLNAYRFSVSWSRVQPTGRGPAVQKGLDFYRRLVDELLAKGIKPAVTLYHWDLPQELEDAGGWPERDIVHRFAEYARIMGEALGDRVEQWITLNEPWCTAFLGYGSGVHAPGRTDPVASLRAAHHLNVAHGLGVSALRSAMPARNSIAVSLNSSVVRPITSSPEDRAAARKIDDLANGVFHGPMLHGAYPETLFAATSSLTDWSFVRDGDVATAHQPLDALGLNYYTPALVGAADAGLEGPRADGHGASEHSPWPAADDVLFHQTPGERTEMGWTIDPTGLHELIMRYAREAPGLPMYVTENGAAYDDKMDADGRVHDPERIAYLHGHLRAVRRAIAEGADVRGYYLWSLMDNFEWAYGYGKRFGAVYVDYATLTRTPKSSAHWYGQAAKTGALPPLAPAPA
One may read the Km as the concentration of substrate that gives half-maximal velocity. As usually defined, the kcat is the maximal rate divided by the concentration of active sites. With B1, the Km is 300 µM and the kcat stood at 9.4 s⁻¹.

The values above are taken from publication doi:10.1101/2021.10.20.465124v1.
